Assay results published in the nanobody polyreactivity screen of Harvey et al. (2022).

test: yeast display, Sf9 membrane polyspecificity reagent, FACS + sequencing; frameworks hold sequencing errors
Method in brief: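 Sorting gates, low and high (top ~1%), were placed on anti-HA fluorescence to track expression and on streptavidin fluorescence to track reagent binding. A clone's polyreactivity label is taken from the gate it came out of. The reagent was 10% biotinylated, detergent-solubilized Sf9 membrane, applied for 1 hour at 4 °C to galactose-induced yeast display cells.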

Sequence	polyreactivity (PSR sort gate)
QVQLVESGGGLVQAGGSLRLSCAASGSIFYHNAMGWYRRAPGKEREFVAAITGSGGSTYYADSVKGRFTISRDNAKNTVYLQMNSLKPEDTAVYYCASVGYTKWWISWGYDYWGQGTQVTVSS	low polyreactivity
QVQLVESGGGLVQAGGSLRLSCAASGFIFPYYAMGLYRQAPGKEREMVAAITFSATRTYYADSVKGRFTISRDNAKNTVYLQMNSLKPEDTADYYCKARGGVYGSYFEFNYWGQGSQVTVSS	low polyreactivity
QVQLVESGGGLVQAGGSLRLSCAASGSTFKTYAMGWYRQAPGKESELVAAISWSGGSTYYADSVKGRFTISRDNAKNTVYLQMNSLKPEDTAVYYCNAGWGYPSPWFIGEYWGQGTQVTVSS	low polyreactivity
QVQLVESGGGLVQAGGSLRLSCAASGSIFYWNAMGWYRQAPGKEREFVADISQSGDSTYYADSVKGRFTISRDNAKNTVYLQMNSLKPEDTAVYYCAAQFLSYAWDYDYWGQGTQVTVSS	low polyreactivity
QVQLVESGGGLVQAGGSLRLSCAASGRIFRTYAMGWYRQAPGKERELVAAINSVDRTYYADSVKGRFTISRDNAKNTVYLQMNSLKPEDTAVYYCAARGYRGHDEFGYWGQGTQVTVSS	high polyreactivity
QVQLVESGGGLVQAGGSLRLSCAASGRTFGWNGMGWYRQAPGKERELVAVISSGGSTKYADSVKGRFTISRDNAKNTVYLQMNSLKPEDTAVYYCAKDWVRSGRRKMDYWGQGTQVTVSS	low polyreactivity
QVQLVESGGGIVQAGGSLRLSCAASGIIFKAYAMGWYRKAPGKERELVAAITTGSTTYADSVKGRFTISRDNAKNTVYLQMNSLKPEDTAVYYCNARFDWGWPGYEYDYCGQGTQVTVSS	low polyreactivity
QVQLVESGGGLVQAGGSLRLSCAASGRIFRDYDMGWYRKAPGKEWELVAAITYRGGSTYYADSVKGRFTISRDNAKNTVYLQINSLKPEDTAVYYCAAGSRSPHWYTRELDYWVQGTQVTVSS	low polyreactivity
QVQLVESGGGLVQAGGSLRLTCAASGSTFRYYVMGWYRQAPGKERELVAGISYRGGTTYYADSVKGRFTISRDNAKNTVYLQMNSLKPEDTAVYYCNAETAAAQASYDRLYVLLDYWGQGTQVTVSS	low polyreactivity
QVQLVESGGGLVQAGGSLRLSCAASGFIFSGYAMGWYRQAPGKERELVASISWSGARTNYADSVKGRFTISRDNAKNTVYLQMNSLKPEDTAVYYCAAQVGRGYEVYPVYKYGYWGQGTQVTVSS	high polyreactivity
QVQLVESGGGLVQAGGSLRLSCAASGLIFPSYVMGWYRLAPGKERELVAGITIGDRTYYADSVKGRFTISRDNAKNTVYLQMNSLKPEDTAVYYCAAVYTYAGRRFGYWGQGTQVTVSS	high polyreactivity
QVQLVESGGGLVQAGGSLRLSCAASGFTFVRYAMGWYRQAPGKEREFVAAITWSGGGTYYADSVKGRFTISRDNAKNTVYLQMNSLKPEDTAVYYCAADRRAYGGGYWGQGTQVTVSS	high polyreactivity
QVQLVESGGGLVQAGGSLRLSCAASGSTIDYYAMGWYRQAPGKERELVATISRGGSTNYADSVKGRFTISRDNAKNTVYLQMNSLKPEDTAVYYCAATYARYFYKYYYWGQGTQVTVSS	high polyreactivity
QVQLVESGGGLVQAGGSLRLSCAASGIIFDWYTMGWYRQAPGKERELVAAISWRGGRTYYADSVKGRFTISRDNAKNTVYLQMNSLKPEDTAVYYCAAEAPVQPFYVFNTGIYELDYWGQGTQVTVSS	low polyreactivity
QVQLVESGGGLVQAGGSLRLSCAASGFIFHLYAMGWYRQAPGKERDLVAAIRISDGSTYYADSVKGRFTISRDNAKNSVYLQMNRLKPEDTAVYYCNVVYRYGGYNYWGQGTQVTVSS	high polyreactivity
QVQLVESGGGLVQAGGSLRLTCAASGYTFAGNAMGWYRQAPGKERELVAALSRSGGRTYYADSVKGRFTISRDNAKTTVYLQMNSLKPEDTAVYYCAASYRYTEYVSTWGFGYWGQGTQVTVSS	high polyreactivity
QVQLVESGGGLVQAGGSLRLSCAASGSTLSVNAMGWYRQAPGKERELVAAIDFDGGDTYYADSVKGRFTISRDNAKNTVYLQMNSLKPEDTAVYYCAADIGGQYDYLADDYWGQGTQVTVSS	low polyreactivity
QVQLVESGGGLVQAGGSLRLSCAASGYIFPPNAMGWYRQAPGKDRELVAAIRRSTGSTYYADSVKGRFTISRDNAKNTVYLQMNSLKPEDTAVYYCAAYYGYITFGYTYEYWGQGSQVTVSS	high polyreactivity
KVQLVESGGGLVQAGGSLRLSCAASGSTFPPNAMGWNRQAPGKERELVAVISYSDGSTYYADSVKGRFTISRDNAKNTVYLQMNSLKPEDTAVYYCAAYSGYGGVSMYYWGQGTQVTVSS	low polyreactivity
QVQLVESGGGLVQAGGSLRLSCAASGSIFYYNAMGWYRQAPGKERELVAAISWSGDSTYYADSVKGRFTISRDNAKNTVYLQMNSLKPEDTAVYYCNTDLVPWTEYWYDYWGQGTQVTVSS	low polyreactivity
QVQLVESGGGLVQAGGSLRLSCAASGSIFYGYAMGWYRQSPGKERELVAAISSTGVRSYYADSVKGRFTISRDNAKNTVYLQMNSLKPEDSEVYYCAARRYGPGRYQEDYWGQGSQVTVSS	high polyreactivity
QVQLQESGVGLVQAGGSLGCAASGNISTRSEMGWYRQAPGKEREFVATINSGGITNYADSVKGRFTISRDNAKNTVYLRMNSLKPEDTAVYYREVYGYFSDPYDYWGQGTQVTVSS	low polyreactivity

Sequence	polyreactivity (PSR sort gate)
QIQLVESGGGLDQAGGSLRISCAASAYTYVDYIGCYIPAPGKERELVADIDNSGGGTYYADSVTGRFTISRDNAKNTVYFLMNSLKAEDTAVYYCAAEFPYDDYYSNRDYDYWGQGTQVTVSS	low polyreactivity
QVQLEESGRGLVQAGGSLRLSCAASGSIFIVYAIGWYRQAPGKERELVAAINDGGSTSYADSVKGRFTISRDNAKNTVYLQMNSLKPEDTAVYFCAAETYLGNDYWEDYYWGQGTQVTVSS	low polyreactivity
QVKRVESGGGLVQAGGSLRFSCADSGFTFGTYAMGWYRQAPGKEREFVAAISSNGGNTYYADSVKGRFTISRDNAKNTVYLEIHSLKPEDTAVSYCADRYPSGTRKWYCYWGQGTQVTVSS	high polyreactivity
QVQLEESGAALVQAGGSLRLSCAAMGWYRQSPGKERELLATITWSGGSTYYADSVKGRFTISRDNAKNTVYLQMNSLKPEDTAVYYCTARATLLSPANTIRGYDYWGQGTQVTVSS	low polyreactivity
QVQLLESGGGLFQPGGSLRLSCAASGRTFDGNVMGWYRQAPGKETELVAAITASGGRTYYADSVKGRFTISSDNAKNTVYLQMNSLKAEDTAVYYCNAGIRRSRGTMDYWGQGTQVTVSS	high polyreactivity
QVQLVESGGGLVQAGGSLRLSSAASGRIFSINVMGWYRHAPGKERELVAAISKRGGSTYYADSVKGRFTISRDNAKNTVYLQMNSLKPEDTAVYYCAVDRYSTDRVKTSYGYDYWGQGTQVTVSS	high polyreactivity
QVQHVESGGGLVQAGGSLRLSCAASGRIFRDNAMGRNRQAPGKEREVVAAISRRGGSTYYADSVKGRFTISRDNAKNTVYLQLNSLKPEDTAVYYCNKTTHSRTFRYDYWGQGTQVTVSS	low polyreactivity
QVQLVESGVCLVQAGGSLRLSCAATGFTIKYYAMGWYRQPPGKEMELVAAISWTGANTYYADSVKGRFTISRDNAKNTVYLQMNSLKPDYTAVYYCAAGYLIGHSVRTTVRTIYEYWGQGTQVTVSS	high polyreactivity
LVQLVETGGGLVQAGGSLRLSCAASGSVFYSYAMGWYRQAPGKERELVAAISFSGGSTYYADSVKGRFTISRDNAKNTVYLQMNSLKPEDTAVYYCNTLSADTFDYWGQGTQVTVSS	low polyreactivity
QVQLVESGGGLVQAGGSLRLSCAASGFTWSYAMGWYRQAPGKERELVATISDGVSTNYADSVKGRFTISRDNAKNTVYLQMNSLKPEDTAVYYCAARYTSWGMGYWGQGTQVTVSS	low polyreactivity
QVQLVESGGGLVQAGGSLRLSCAASGSTFAYNAMGWYRQAPGKERELVAAISGSTTRTYYADSVKGRFTISRDNAKNTVYLQMNSLKPEDTAVYYCAAGIPFRQRLRRYYYWGQGTQVTVSS	high polyreactivity
QVQLQESGGGLVQAGGCLRLSCAASGSIFTYAVMGWYRQAHGKEHELVATIDTGSSTYYADSVKGRITISRDNAKNTLYLQMNSLIPEDTAVYYCAVNTYCRVRYRYWGQGTQVTVSS	high polyreactivity
QVQLVESGGGLVQAGGSLRLSSAASGLILYSYAMGWYRQAPGKERELVADISSGGITNYADSVKGRFTISRDNAKNTVYLQMNSLKPEDTAVYYCAADTRPVNYILYDYWGQGTQVTVSS	low polyreactivity
QVQLVDSGGGLVQAGGSLRLSCSASGYTFALYSMGWYRQAPGKERELVADINIGGASTYYADSVKGRFTISRDNAKNTVYLQMNSLKPEDTAVYYCAKEYYDGYFPTFDYDYWGQGTQVTVSS	low polyreactivity
QVQLVESGGGLVHAGGSLRLSCAASGRTQPYNAMGWYRQAPGKERELVAAISKRGSSTYYADSVKGRFTISRDNAKNTVYLQMNSLKPEDTAVYYCATPGPAVHGTRGEYDYWGQGTQVTVSS	high polyreactivity
QVQLQESGGGLVQAGGILRLSCAACGNIFPSAVMGWYRQALGKEREFVATINSGSNTYYADSVKGRFTISRDNAKNTVYLQMNSLKLEDTAVYYCAAYFKLQAWHTYWGQGTQVTVSS	low polyreactivity
QVQLVESGGGLVQSGGSLRLSCAASGCIFSKNAMGWYRPAPGKERELVAAISWSGGSTSYADSVKGRFTISRDNAKNTVYLQMNSLKPEDTAVYYCARVGAIPSRYGYWGQGTQVTVSS	high polyreactivity
QVQLVESGGGLDQAGGSLGLSCAASGFTFTGYTMGWYRQAPGKERELVATISGSGGNTYYADSVKGRFTISRDNAKNTVYLQMNSLKPEETAVYYCARRRSGPRVLYYYWGQGTQVTVSS	low polyreactivity
QVQLVESGGGLVQAGRSLRLICAASGLILFYNAMGWYRQPPGKERELVAVITSGGRTYYADSVKGRFTISRDNAKNTVYLQMNSLKPEDTAVYFCAATYGHPTSYGDGWRYGYWGQGTQVTVSS	low polyreactivity
QVQLVESGGGLVQAGGSLRLSCAASGSIFRGNAMGWYRQAPGKERELVAAITRSGGRTYYADTVKGRFTISRDNAKNTVYLHMNSLKPEDTAVYYCAAEYYTRLGYWGQGTQVTVSS	high polyreactivity
QVQLVESGGGLVQAGGSLRLSCAASGFIFAYNAMGWYRQAPGKERELVAGISRRGGSTYYADSVKGRFTISRDNAKNTVYLQMNSLKPEDTAVYYCAADSFTYWSWLHGYWGQGTQVTVSS	high polyreactivity
